Experimental findings from the supplement of paper PMC5998384 are described below.

In the data set the test system is HeLa Kyoto. The data set can be described thus: melting temperature (median over replicates), in situ; higher = more thermally stable.
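Also: HeLa Kyoto cells synchronized by double thymidine or nocodazole block, proteins quantified by TMT10plex mass spectrometry, three independent biological replicates.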

Under “cell cycle stage: mitosis”, “MAAAAAGLGGGGAGPGPEAGDFLARYRLVSNKLKKRFLRKPNVAEAGEQFGQLGRELRAQECLPYAAWCQLAVARCQQALFHGPGEALALTEAARLFLRQERDARQRLVCPAAYGEPLQAAASALGAAVRLHLELGQPAAAAALCLELAAALRDLGQPAAAAGHFQRAAQLQLPQLPLAALQALGEAASCQLLARDYTGALAVFTRMQRLAREHGSHPVQSLPPPPPPAPQPGPGATPALPAALLPPNSGSAAPSPAALGAFSDVLVRCEVSRVLLLLLLQPPPAKLLPEHAQTLEKYSWEAFDSHGQESSGQLPEELFLLLQSLVMATHEKDTEAIKSLQVEMWPLLTAEQNHLLHLVLQETISPSGQGV [F8A1]” returned a melting temperature of 50.9 °C. With “MAAAELADTQLMLGVGLIEKDTNGEVLWVWCYPSTTATLRNLLLRKCCLTDENKLLHPFVFGQYRRTWFYITIIEVPDSSILKKVTHFSIVLTAKDFNPEKYAAFTRILCRMYLKHGSPVKMMESYIAVLTKGICQSEENGSFLSKDFDARKAYPAGSIKDIVSQFGMETVILHTALMLKKRIVVYHPKIEAVQEFTRTLPALVWHRQDWTILHSYVHLNADELEALQMCTGYVAGFVDLEVSNRPDLYDVFVNLAESEITIAPLAKEAMAMGKLHKEMGQLIVQSAEDPEKSESQVIQDIALKTREIFTNLAPFSEVSADGEKRVLNLEALKQKRFPPATENFLYHLAAAEQMLKI [FAM45BP]”, the melting temperature by setting is: (cell cycle stage: G1/S) 50.6 °C; (cell cycle stage: mitosis) 50.5 °C. In the case of “MAAEADGPLKRLLVPILLPEKCYDQLFVQWDLLHVPCLKILLSKGLGLGIVAGSLLVKLPQVFKILGAKSAEGLSLQSVMLELVALTGTMVYSITNNFPFSSWGEALFLMLQTITICFLVMHYRGQTVKGVAFLACYGLVLLVLLSPLTPLTVVTLLQASNVPAVVVGRLLQAATNYHNGHTGQLSAITVFLLFGGSLARIFTSIQETGDPLMAGTFVVSSLCNGLIAAQLLFYWNAKPPHKQKKAQ [MPDU1]”, the melting temperature is, setting by setting: (cell cycle stage: G1/S) 59.2 °C; (cell cycle stage: mitosis) 59.2 °C. “MAEEEGPPVELRQRKKPKSSENKESAKEEKISDIPIPERAPKHVLFQRFAKIFIGCLAAVTSGMMYALYLSAYHERKFWFSNRQELEREITFQGDSAIYYSYYKDMLKAPSFERGVYELTHNNKTVSLKTINAVQQMSLYPELIASILYQATGSNEIIEPVYFYIGIVFGLQGIYVTALFVTSWLMSGTWLAGMLTVAWFVINRVDTTRIEYSIPLRENWALPYFACQIAALTGYLKSNLNTYGERFCYLLMSASTYTFMMMWEYSHYLLFLQAISLFLLDTFSVEQSDKVYEVYKIYIFSLFLGYLLQFENPALLVSPLLSLVAALMLAKCLQLNVKKGSFVAKIIKVINFYLVCTLTITLNIIMKMFVPHKENGHMLKFLEVKFGLNMTKNFTMNWLLCQESLQAPSQDFFLRLTQSSLLPFYILVLIICFLSMLQVIFRRINGKSLKETVTLEDGRIGERPEIIYHVIHTILLGSLAMVIEGLKYIWIPYVCMLAAFGVCSPELWMTLFKWLRLRTVHPILLALILSMAVPTIIGLSLWKEFFPRLMTELMELQEFYDPDTVELMTWIKRQAPVAAVFAGSPQLMGAIKLCTGWMVTSLPLYNDDDLLKRNENIYQIYSKRSAEDIYKILTSYKANYLIVEDAICNEVGPMRGCRVKDLLDIANGHMVCEEGDKLTYSKYGRFCHEVKINYSPYVNYFTRVYWNRSYFVYKINTVISFQS [DPY19L4]” returned a melting temperature (cell cycle stage: G1/S) of 54.5 °C and a melting temperature (cell cycle stage: mitosis) of 56.9 °C. Regarding “MAEEMESSLEASFSSSGAVSGASGFLPPARSRIFKIIVIGDSNVGKTCLTYRFCAGRFPDRTEATIGVDFRERAVEIDGERIKIQLWDTAGQERFRKSMVQHYYRNVHAVVFVYDMTNMASFHSLPSWIEECKQHLLANDIPRILVGNKCDLRSAIQVPTDLAQKFADTHSMPLFETSAKNPNDNDHVEAIFMTLAHKLKSHKPLMLSQPPDNGIILKPEPKPAMTCWC [RAB33B]”, the melting temperature reads like this: (cell cycle stage: G1/S) 54.3 °C; (cell cycle stage: mitosis) 55 °C. Take “MAELQMLLEEEIPGGRRALFDSYTNLERVADYCENNYIQSADKQRALEETKAYTTQSLASVAYLINTLANNVLQMLDIQASQLRRMESSINHISQTVDIHKEKVARREIGILTTNKNTSRTHKIIAPANLERPVRYIRKPIDYTILDDIGHGVKWLLRFKVSTQNMKMGGLPRTTPPTQKPPSPPMSGKGTLGRHSPYRTLEPVRPPVVPNDYVPSPTRNMAPSQQSPVRTASVNQRNRTYSSSGSSGGSHPSSRSSSRENSGSGSVGVPIAVPTPSPPSVFPAPAGSAGTPPLPATSASAPAPLVPATVPSSTAPNAAAGGAPNLADGFTSPTPPVVSSTPPTGHPVQFYSMNRPASRHTPPTIGGSLPYRRPPSITSQTSLQNQMNGGPFYSQNPVSDTPPPPPPVEEPVFDESPPPPPPPEDYEEEEAAVVEYSDPYAEEDPPWAPRSYLEKVVAIYDYTKDKEDELSFQEGAIIYVIKKNDDGWYEGVMNGVTGLFPGNYVESIMHYSE [ABI2]”: the melting temperature reads like this: (cell cycle stage: G1/S) 52.3 °C; (cell cycle stage: mitosis) 52.5 °C. In the case of “MAGAGPTMLLREENGCCSRRQSSSSAGDSDGEREDSAAERARQQLEALLNKTMRIRMTDGRTLVGCFLCTDRDCNVILGSAQEFLKPSDSFSAGEPRVLGLAMVPGHHIVSIEVQRESLTGPPYL [NAA38]”, the melting temperature (cell cycle stage: G1/S) turned out to be 52.1 °C and the melting temperature (cell cycle stage: mitosis) worked out at 52.4 °C.

Consider “MAPRGRKRKAEAAVVAVAEKREKLANGGEGMEEATVVIEHCTSURVYGRNAAALSQALRLEAPELPVKVNPTKPRRGSFEVTLLRPDGSSAELWTGIKKGPPRKLKFPEPQEVVEELKKYLS [C11ORF31]”, for which the melting temperature (cell cycle stage: mitosis) came out at 52.2 °C. “MASRWWRWRRGCSWKPAARSPGPGSPGRAGPLGPSAAAEVRAQVHRRKGLDLSQIPYINLVKHLTSACPNVCRISRFHHTTPDSKTHSGEKYTDPFKLGWRDLKGLYEDIRKELLISTSELKEMSEYYFDGKGKAFRPIIVALMARACNIHHNNSRHVQASQRAIALIAEMIHTASLVHDDVIDDASSRRGKHTVNKIWGEKKAVLAGDLILSAASIALARIGNTTVISILTQVIEDLVRGEFLQLGSKENENERFAHYLEKTFKKTASLIANSCKAVSVLGCPDPVVHEIAYQYGKNVGIAFQLIDDVLDFTSCSDQMGKPTSADLKLGLATGPVLFACQQFPEMNAMIMRRFSLPGDVDRARQYVLQSDGVQQTTYLAQQYCHEAIREISKLRPSPERDALIQLSEIVLTRDK [PDSS1]” registered a melting temperature (cell cycle stage: mitosis) of 51.7 °C.

For the sequence “MEALLLGAGLLLGAYVLVYYNLVKAPPCGGMGNLRGRTAVVTGANSGIGKMTALELARRGARVVLACRSQERGEAAAFDLRQESGNNEVIFMALDLASLASVRAFATAFLSSEPRLDILIHNAGISSCGRTREAFNLLLRVNHIGPFLLTHLLLPCLKACAPSRVVVVASAAHCRGRLDFKRLDRPVVGWRQELRAYADTKLANVLFARELANQLEATGVTCYAAHPGPVNSELFLRHVPGWLRPLLRPLAWLVLRAPRGGAQTPLYCALQEGIEPLSGRYFANCHVEEVPPAARDDRAAHRLWEASKRLAGLGPGEDAEPDEDPQSEDSEAPSSLSTPHPEEPTVSQPYPSPQSSPDLSKMTHRIQAKVEPEIQLS [DHRS13]”, the melting temperature (cell cycle stage: mitosis) stood at 50 °C. The sequence “MEEKQILCVGLVVLDVISLVDKYPKEDSEIRCLSQRWQRGGNASNSCTVLSLLGAPCAFMGSMAPGHVADFLVADFRRRGVDVSQVAWQSKGDTPSSCCIINNSNGNRTIVLHDTSLPDVSATDFEKVDLTQFKWIHIEGRNASEQVKMLQRIDAHNTRQPPEQKIRVSVEVEKPREELFQLFGYGDVVFVSKDVAKHLGFQSAEEALRGLYGRVRKGAVLVCAWAEEGADALGPDGKLLHSDAFPPPRVVDTLGAGDTFNASVIFSLSQGRSVQEALRFGCQVAGKKCGLQGFDGIV [KHK]” had a melting temperature (cell cycle stage: G1/S) of 54.2 °C. Sequence “MFSLPLNCSPDHIRRGSCWGRPQDLKIAAPAWNSKCHPGAGAAMARQHARTLWYDRPRYVFMEFCVEDSTDVHVLIEDHRIVFSCKNADGVELYNEIEFYAKVNSKPVWLSVDFDNWRDWEGDEEMELAHVEHYAELLKKVSTKRPPPAMDDLDDDSDSADDATSN [PTGES3L]” returned a melting temperature (cell cycle stage: G1/S) of 49.8 °C and a melting temperature (cell cycle stage: mitosis) of 49.9 °C.
